Data from patent publication US20200087408A1 (ANAPTYSBIO, published 2020).
Positions count from the first letter of the chain named. Each block holds one binder with its values, some of them ahead of it.

Tests used:
human IL-36R (on cells) [1] = target: T1, human IL-36R (on cells) (human, UniProt Q9HB29 20-575); test: cell-based or functional assay
T1 sequence (looked up): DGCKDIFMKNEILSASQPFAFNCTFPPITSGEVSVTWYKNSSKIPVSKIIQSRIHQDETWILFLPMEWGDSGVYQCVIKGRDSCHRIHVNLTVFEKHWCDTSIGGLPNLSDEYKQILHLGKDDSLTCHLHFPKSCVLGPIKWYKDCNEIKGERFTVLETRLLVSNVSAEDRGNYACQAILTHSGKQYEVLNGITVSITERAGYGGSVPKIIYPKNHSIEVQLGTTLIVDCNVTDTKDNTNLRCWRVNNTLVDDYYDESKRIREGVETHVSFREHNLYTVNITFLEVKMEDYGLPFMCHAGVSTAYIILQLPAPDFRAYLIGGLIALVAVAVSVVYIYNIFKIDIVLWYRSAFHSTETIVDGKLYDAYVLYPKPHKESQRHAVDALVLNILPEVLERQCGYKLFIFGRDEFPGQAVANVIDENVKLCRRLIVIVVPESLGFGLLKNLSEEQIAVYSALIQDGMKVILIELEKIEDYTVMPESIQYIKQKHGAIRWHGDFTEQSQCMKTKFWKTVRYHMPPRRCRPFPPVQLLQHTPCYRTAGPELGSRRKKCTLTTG

[2] = target: T2, extracellular domain of human IL-36R (human, UniProt Q9HB29 20-335); test: BIACORE T200 SPR, human IL-36R extracellular domain immobilised, antibody injected
T2 construct: extracellular domain; Immobilised on the chip in the BIACORE assay; soluble and bead-coupled in the KINEXA assay; also called soluble human IL-36R extracellular domain
T2 sequence (looked up): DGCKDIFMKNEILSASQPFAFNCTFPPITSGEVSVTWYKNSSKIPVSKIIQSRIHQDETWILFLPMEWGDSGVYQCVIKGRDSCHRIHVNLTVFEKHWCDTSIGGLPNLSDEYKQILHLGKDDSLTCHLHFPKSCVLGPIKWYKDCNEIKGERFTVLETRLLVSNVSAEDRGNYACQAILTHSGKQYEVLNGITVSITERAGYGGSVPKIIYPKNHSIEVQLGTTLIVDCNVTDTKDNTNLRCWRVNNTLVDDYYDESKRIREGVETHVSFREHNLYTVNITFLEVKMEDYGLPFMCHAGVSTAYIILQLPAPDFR
Protocol: The binding affinities of various purified antibodies comprising immunoglobulin heavy chain (HC) and light chain (LC) polypeptides described herein were evaluated using BIACORE™ T200 […] assays. BIACORE™ T200 evaluation software (GE Healthcare, Buckinghamshire, United Kingdom) is used to determine antibody-antigen binding kinetics and affinity. The extracellular domain of human IL-36R was immobilized at approximately 100 RU onto a CMS sensor chip (GE Healthcare, Waukesha, Wis.) using amine coupling chemistry. HBS-EP+ buffer (0.01 M HEPES, 0.15 M NaCl, 3 mM EDTA, 0.05% Polysorbate, pH 7.6) (Teknova, Hollister, Calif.) was used to reconstitute each antibody at various concentrations Each antibody concentration was then injected for two to three minutes over immobilized antigen at a flow rate of 30 μL/min, and allowed to dissociate for 15 minutes. The surface was regenerated with 60 μL of 3 M MgCl₂ after each cycle. Association and dissociation kinetic constants (kon and koff) were fit globally using a 1:1 binding model with mass transport with the BIACORE™ T200 evaluation software in order to report on- and off-rates (ka and kd, respectively), as well as affinities (KD).

[3] = target: cynomolgus IL-36R (on cells, allelic variant not stated) (cynomolgus monkey), A0A2K5; test: cell-based or functional assay
Chain of cynomolgus IL-36R (on cells, allelic variant not stated) (cynomolgus monkey), A0A2K5 (chain, as listed by the source mutant): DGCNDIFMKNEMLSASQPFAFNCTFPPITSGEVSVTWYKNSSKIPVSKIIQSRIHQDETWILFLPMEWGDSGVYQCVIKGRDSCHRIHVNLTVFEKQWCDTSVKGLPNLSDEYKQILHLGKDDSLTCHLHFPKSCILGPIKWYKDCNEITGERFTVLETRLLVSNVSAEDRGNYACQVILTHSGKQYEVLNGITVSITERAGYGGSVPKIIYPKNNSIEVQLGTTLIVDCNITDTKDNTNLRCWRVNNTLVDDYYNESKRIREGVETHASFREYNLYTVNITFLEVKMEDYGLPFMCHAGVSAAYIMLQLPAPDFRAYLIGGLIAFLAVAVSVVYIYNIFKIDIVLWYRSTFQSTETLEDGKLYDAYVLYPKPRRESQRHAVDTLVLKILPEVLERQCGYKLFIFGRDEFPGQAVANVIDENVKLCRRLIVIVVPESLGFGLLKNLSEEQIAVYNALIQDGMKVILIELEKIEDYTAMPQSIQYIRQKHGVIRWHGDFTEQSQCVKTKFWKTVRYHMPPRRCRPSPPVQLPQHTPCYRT

human IL-36R (on cells) [4] = target: T1, human IL-36R (on cells); test: cell-based or functional assay; remark: listed apart in the source
human IL-36R (on cells) [5] = target: T1, human IL-36R (on cells); test: cell-based or functional assay; remark: listed apart in the source

- EC50 (nM), HEK human IL-36R IL-8 luciferase reporter assay, 20 ng/ml hIL-36β (human IL-36R (on cells) [1]): 0.267 nM
- EC50 (nM), HEK human IL-36R IL-8 luciferase reporter assay, 200 ng/ml hIL-36γ (human IL-36R (on cells) [1]): 0.093 nM
B1: Chimeric 1D9 (APE3798) (antibody, V domains shown)
VH: QVQLQQSGPELVKPGALVKISCKASGFTFTSYDINWVRQRPGQGLEWIGWIYPGDGSTKYNEKFKGKATLTADKSSSTAYMQLSSLTSENSAVYFCTRSFYTMDYWGQGTSVTVSS
VL: DIVMTQAAPSVPVTPGESVSISCRSSKSLLHSNGNTYLYWFLQRPGQSPQLLISRMSNLASGVPDRFSGSGSGTAFTLRISRVEAEDVGVYYCMQHLEYPFTFGSGTKLEIK

- EC50 (nM), HEK human IL-36R IL-8 luciferase reporter assay, 20 ng/ml hIL-36β (human IL-36R (on cells) [1]): 1.3 nM
- EC50 (nM), HEK human IL-36R IL-8 luciferase reporter assay, 200 ng/ml hIL-36γ (human IL-36R (on cells) [1]): 3.1 nM
B2: Chimeric 5D3 (APE3849) (antibody, V domains shown)
VH: QVQLQQSGPELVRPGASVRMSCKASDYTFTNYWMHWVKQRPGQGLEWIGMFDPSNSVTRLNQKFKDKATLNVDKSSNTAYIQFSSLTFEDSAVYYCARTTSMIIGGFAYWGQGTLVTVSS
VL: DIVMTQAAFSNPVTLGTSASISCRSSKSLLHSNGITYFYWYLQRPGQSPQLLIYQMSNLASGVPDRFSGSGSGTDFTLRISRVEAEDVGIYYCAQNLELPLTFGAGTKLELK

- Kd [2]: 50 pM
- EC50 (nM), HEK cyno IL-36R IL-8 luciferase reporter assay, 300 ng/ml cIL-36γ [3]: 0.29 nM
- EC50 (nM), HEK cyno IL-36R IL-8 luciferase reporter assay, 2 µg/ml cIL-36α [3]: 0.067 nM
- EC50 (nM), HEK cyno IL-36R IL-8 luciferase reporter assay, 10 µg/ml cIL-36β [3]: 0.17 nM
- EC50 (nM), IL-8 secretion by primary cynomolgus PBMCs, 10 ng/ml cyno IL-36β [3]: 1.7 nM
- EC50 (nM), IL-8 secretion by primary cynomolgus PBMCs, 50 ng/ml cyno IL-36α [3]: 0.98 nM
- EC50 (nM), IL-8 secretion by primary cynomolgus PBMCs, 250 ng/ml cyno IL-36γ [3]: 1.4 nM
- EC50 (nM), IL-8 secretion by primary cynomolgus keratinocytes, 10 ng/ml cyno IL-36β [3]: 1.4 nM
- EC50 (nM), IL-8 secretion by primary cynomolgus keratinocytes, 50 ng/ml cyno IL-36α [3]: 1.4 nM
- EC50 (nM), IL-8 secretion by primary cynomolgus keratinocytes, 250 ng/ml cyno IL-36γ [3]: 1 nM
- EC50 (nM), IL-8 secretion by primary human keratinocytes, 1 ng/ml human IL-36β (human IL-36R (on cells) [4]): 0.217 nM
- EC50 (nM), IL-8 secretion by primary human keratinocytes, 10 ng/ml human IL-36α (human IL-36R (on cells) [4]): 0.08 nM
- EC50 (nM), IL-8 secretion by primary human keratinocytes, 100 ng/ml human IL-36γ (human IL-36R (on cells) [4]): 0.08 nM
- EC50 (nM), IL-8 secretion by primary human monocytes, human IL-36α (human IL-36R (on cells) [5]): 0.081 nM
- EC50 (nM), IL-8 secretion by primary human monocytes, human IL-36β (human IL-36R (on cells) [5]): 0.9 nM
- EC50 (nM), IL-8 secretion by primary human monocytes, human IL-36γ (human IL-36R (on cells) [5]): 0.79 nM
- EC50 (nM), HEK human IL-36R IL-8 luciferase reporter assay, 20 ng/ml hIL-36β (human IL-36R (on cells) [1]): 0.24 nM
- EC50 (nM), HEK human IL-36R IL-8 luciferase reporter assay, 50 ng/ml hIL-36α (human IL-36R (on cells) [1]): 0.23 nM
- EC50 (nM), HEK human IL-36R IL-8 luciferase reporter assay, 200 ng/ml hIL-36γ (human IL-36R (on cells) [1]): 0.35 nM
B3: Hzd 5D3 (APE6060) (antibody, V domains shown)
VH: QVQLVQSGAEVKKPGASVKVSCKASGYTFTNYWMNWVRQAPRQGLEWMGMFHPTGDVTRLNQKFKDRVTMTRDTSTSTVYMELSSLRSEDTAVYYCARTTSMIIGGFAYWGQGTLVTVSS
VL: DIVMTQTPLSLSVTPGQPASISCRSSKSLLHRNAITYFYWYLQKPGQPPQLLIYQMSNLASGVPDRFSGSGSGTDFTLKISRVEAEDVGVYYCAQNLELPLTFGGGTKVEIK
notes: also called 5D3 Humanized

- Kd [2]: 22 pM
- EC50 (nM), HEK cyno IL-36R IL-8 luciferase reporter assay, 300 ng/ml cIL-36γ [3]: 0.31 nM
- EC50 (nM), HEK cyno IL-36R IL-8 luciferase reporter assay, 2 µg/ml cIL-36α [3]: 0.073 nM
- EC50 (nM), HEK cyno IL-36R IL-8 luciferase reporter assay, 10 µg/ml cIL-36β [3]: 0.19 nM
- EC50 (nM), IL-8 secretion by primary cynomolgus PBMCs, 10 ng/ml cyno IL-36β [3]: 1.6 nM
- EC50 (nM), IL-8 secretion by primary cynomolgus PBMCs, 50 ng/ml cyno IL-36α [3]: 1.5 nM
- EC50 (nM), IL-8 secretion by primary cynomolgus PBMCs, 250 ng/ml cyno IL-36γ [3]: 1.6 nM
- EC50 (nM), IL-8 secretion by primary cynomolgus keratinocytes, 10 ng/ml cyno IL-36β [3]: 2 nM
- EC50 (nM), IL-8 secretion by primary cynomolgus keratinocytes, 50 ng/ml cyno IL-36α [3]: 1.2 nM
- EC50 (nM), IL-8 secretion by primary cynomolgus keratinocytes, 250 ng/ml cyno IL-36γ [3]: 1.2 nM
- EC50 (nM), IL-8 secretion by primary human keratinocytes, 1 ng/ml human IL-36β (human IL-36R (on cells) [4]): 0.164 nM
- EC50 (nM), IL-8 secretion by primary human keratinocytes, 10 ng/ml human IL-36α (human IL-36R (on cells) [4]): 0.105 nM
- EC50 (nM), IL-8 secretion by primary human keratinocytes, 100 ng/ml human IL-36γ (human IL-36R (on cells) [4]): 0.083 nM
- EC50 (nM), IL-8 secretion by primary human monocytes, human IL-36α (human IL-36R (on cells) [5]): 0.09 nM
- EC50 (nM), IL-8 secretion by primary human monocytes, human IL-36β (human IL-36R (on cells) [5]): 0.105 nM
- EC50 (nM), IL-8 secretion by primary human monocytes, human IL-36γ (human IL-36R (on cells) [5]): 0.084 nM
- EC50 (nM), HEK human IL-36R IL-8 luciferase reporter assay, 20 ng/ml hIL-36β (human IL-36R (on cells) [1]): 0.3 nM
- EC50 (nM), HEK human IL-36R IL-8 luciferase reporter assay, 50 ng/ml hIL-36α (human IL-36R (on cells) [1]): 0.17 nM
- EC50 (nM), HEK human IL-36R IL-8 luciferase reporter assay, 200 ng/ml hIL-36γ (human IL-36R (on cells) [1]): 0.45 nM
B4: Hzd 5D3 (APE6194) (antibody, V domains shown)
VH: B3 VH with T54Y
VL: B3 VL with Q43H
notes: also called 5D3 Humanized
